# According to the DeepSol protein solubility set:
# Assay: soluble on expression in E. coli; label from the status in PepcDB or PDB records
row,Sequence,soluble on expression in E. coli
1,MSLDINQIALHQLIKRDEQNLELVLRDSLLEPTETVVEMVAELHRVYSAKNKAYGLFSEESELAQTLRLQRQGEEDFLAFSRAATGRLRDELAKYPFADGGFVLFCHYRYLAVEYLLVAVLSNLSSMRVNENLDINPTHYLDINHADIVARIDLTEWETNPESTRYLTFLKGRVGRKVADFFMDFLGASEGLNAKAQNRGLLQAVDDFTAEAQLDKAERQNVRQQVYSYCNEQLQAGEEIELKSLSKELAGVSEVSFTEFAAEKGYELEESFPADRSTLRQLTKFAGSGGGLTINFDAMLLGERIFWDPATDTLTIKGTPPNLRDQLQRRTSGGNLEHHHHHH,not soluble
2,MSLDIRRANSADLNALNALEQQLFDGDRISPRQMKRFLHSDHAALFVADAGDQLAGYALLLFHQGTQLSRLYSIAVKPEFRGQRIAQSLVEQCERAALDQGSTTLRLEVREDNTAALKLYEKMGYKTLKLLIHYYDDLCDGRRMQKRLTPQESKVLLPMPLYVQTTPFTCGAACLLMSFACLDKTFEPSRTQEMQLWREATTIFMAAGHGGCSGQGLALAAARRGYHVELWNQSRSTPFIDSVRDPNKKQIIELVHQDFCQQLAEQDVSMIDAPPSQAQLEEWVRKGACVLLLISTYRFDGKKEPHWIVLSGLSDKFFFFHDPHAESEEHVSGSGYIPVGKAALSQIIGFGKQKQIACVVITPRLEGHHHHHH,soluble
3,MSLDLFSVRMRAQKNGKHVSGAERIVKKEELETAVKELLNRPKEFDFMNVKVEKVKDFEVVKFNLKISTYSFKSPEEAREFAVKKLTQEGIKEEVAKKAVEILSKGANPKGGNMRGAVLMDIETGERLEEDKERGVRTIHFDWKDRKKVTEKLLKEGYTLRTVDALALTFKNLFCGVVAELCWSDDPDYVTGYVSGKEIGYVRITPLKEKGDPLGGRVYFVSRKELSEIIECLTQKVVLIELEGHHHHHH,soluble
4,MSLDLSASRSDGGDPLRPASPRLRSPVSDGGDPLRPASPRLRSPVSDGGDPLRPASPRLRSPLGASRPVVGLTAYLEQVRTGVWDIPAGYLPADYFEGITMAGGVAVLLPPQPVDPESVGCVLDSLHALVITGGYDLDPAAYGQEPHPATDHPRPGRDAWEFALLRGALQRGMPVLGICRGTQVLNVALGGTLHQHLPDILGHSGHRAGNGVFTRLPVHTASGTRLAELIGESADVPCYHHQAIDQVGEGLVVSAVDVDGVIEALELPGDTFVLAVQWHPEKSLDDLRLFKALVDAASGYAGRQSQAEPREGGSHHHHHH,soluble
5,MSLDNFIAGLPKLELHLHIEGSLEPELMFALGQRNGVALPWPDVASVRAAYEFDCLQSFLDLYYLGASVLITEQDFFDLTWAYLERCAADKVVHVEIFFDPQTHTARGVPFATVLGGIERALQRGEWEFGISWRLIMSFLRHLSEEDAFATLAEATPFLSRIHGIGLDSGEKGNPPSKFARVFARCRELGLPVVAHAGEEGPADYIWQAIRELEVRRIDHGVRCVDDPDLLRYLADTRLPLTVCPLSNTRLKVFDQMAHHNVLALLEQGLCVTINSDDPAYFGGYMNANFHALAHELGASMNQLCRLSLNAVEASWLSLADKARLTREGHHHHHH,soluble
6,MSLDNINHILSKELGISLKQVTSVIEMLDEGNTVPFIARYRKERTGGLTDEVLRKFNERLTYLRNLESRKEDVLRIIEEQEKLTPELKLKIEKATTLTEIEDIYRPFKAKKRTRATMAVEKGLKPLAELILSGEFNGDIVEEANKYINEEKGVKNEEEALQGAMDIISEIISDNADYRKWIRNFVQKDGIIQVKGSSEEQTPYEMYYDYKEPVRTIPSHRILAINRGEKEKILSVKVTCNDDKIIDYLNKKVLKENKITDKYLEESIKDSFKRLIYPSIEREIRSELTSKGEEGAIDIFKANLKALLMQAPIKGKVVMGFDPGFRTGCKVAILDETGKFVENTTVYPTAPQNRIDETISTLKKLIKKHGVQVISLGNGTASRESEEVIAKMLKEIKDETGKELFYVIVSEAGASVYSASELANKEYPDLDVTVRGAISIGRRLQDPLAELVKIDPKAIGVGQYQHDVTQKKLDESLAGIVEDCVNNVGVDLNIATPSLLSYISGINASIAKNIVDYREENGKFKSRKELLKVKRLGQKAYEQCAGFLRVMESKEALDNTSVHPESYKVAKELIKTLGYTEEDEGHHHHHH,soluble
7,MSLDNLITIYDKNDANNLAEHLYDTQGLGALSDWLTATVSNKLNGAEIFQGTYSINGTNADLIVEGRIIQCYVDENRAKQRLRIYYAKTSVIGNTIEVKAEPIFNDIRKSVLNKYDSGTEKITATQAWQNAKVLAKPAIPSQFSFSSLVDTLANVKIEKANFLEFFGGKEGSILDRFHGEFLKDNNTLRHEKSLGTDHKIKAIYTKNLTGLDLEIDAQSVLVGVYPFISSSSEGEDEITLPEEVIFTDYVDDYPAGYVSFVDFKDKATDVATLREAAKDWLKTNIDKQKPQVSGSIELVPLRHQRGYEKFVDLEKVSMGDGVDVYHPQLKVNMSARIVEYTFNVLTNSYDKLVVGNVKTNFLENTENNVSNLINDEGHHHHHH,soluble
8,MSLDNMAKRQTKDIETIIQKIYYAKNRHLGTYTPLKNNSELEEINNYIYDLFESNEQLIHSIEHTERRLRDIQLKEIERQFQPHFLFNTMQTIQYLITLSPKLAQTVVQQLSQMLRYSLRTNSHTVELNEELNYIEQYVAIQNIRFDDMIKLHIESSEEARHQTIGKMMLQPLIENAIKHGRDTESLDITIRLTLARQNLHVLVCDNGIGMSSSRLQYVRQSLNNDVFDTKHLGLNHLHNKAMIQYGSHARLHIFSKRNQGTLICYKIPLSRGNVDVEGHHHHHH,not soluble
9,MSLDNSRTRPRVGHIQFLNCLPLYWGLARTGTLLDFELTKDTPEKLSEQLVRGDLDIGPVTLVEFLKNADDLVAFPDIAVGCDGPVMSCVIVSQVPLDRLDGARVALGSTSRTSVRLAQLLLSERFGVQPDYYTCPPDLSLMMQEADAAVLIGDAALRANMIDGPRYGLDVHDLGALWKEWTGLPFVFAVWAARRDYAEREPVITRKVHEAFLASRNLSLEEVEKVAEQAARWEAFDEDTLAKYFTTLDFRFGAPQLEAVTEFARRVGPTTGFPADVKVELLKPEGHHHHHH,soluble
10,MSLDPTRVDLLSICKEILTYPEYQERLPAGSAHPNIDSPAIKSLYAEIGRHSRQQTHVPSHYQLPPGDHLLIKQLAKITQDLGTPAKLDEIMVTHGAQQAISLALRATTQKGDIVAVESPCYFGNLLMLESLGLKVVEIPSCPRDGMCPEALAKTMATWDIKALIVTPNFTNPTGAMMPLEKRQQLLLASGNIPIIEDDVFGGLSYDKPLPSLSLLDDKQRVIYVNSLSKTLDSRLRIGWMLAGRYRDQIEQYLLCENMGSLNLMQSAVATFLTSGKYRTHTARMGRVYQNNMRRFIQMLHQYLDEYESLKNRYQINAVQGSFLLWLRLPEDTDSYALYQACNKHRISLLPGTVFGTQEQYRHCVRLSVANFGHETDWSHAMQTLAKLIAKRVCEGHHHHHH,soluble
11,MSLDSLGAINKIQDFLQKQEYKTLEYNLTTTEVVMENVTAFWEEGFGELFEKAKQNNNNRKTSNGDDSLFFSNFSLLGTPVLKDINFKIERGQLLAVAGSTGAGKTSLLMMIMGELEPSEGKIKHSGRISFCSQFSWIMPGTIKENIIFGVSYDEYRYRSVIKACQLEEDISKFAEKDNIVLGEGGITLSGGQRARISLARAVYKDADLYLLDSPFGYLDVLTEKEIFESCVCKLMANKTRILVTSKMEHLKKADKILILMKVAAIFMGHFQNSKIYSQTLAQNSWDVILSTNLVQKEEIQS,soluble
12,MSLDVINQLPSPEALLEELHRVVSKPIRLMVVCGTHNRAILRYGIREELPDFIELVAGPGCSVCVMPTGHVDAFVKVARQPDVITATCEDLLKVRGSKESLADVLNEGVHRVEIISSPRQALELAYVEEDKIVVYPAVGFEATAPSIAETILEAAQNGVGNFCVIPSIRLLPPTIDALLLDPQLSIQGLLCSDHINTISDTEAYADLARKHSLSCCIAGFEKAEILQGILSMVKQIHRGESMVDASGAMVYSMEETARARRVVEEVFFPTETAWRGLGSIAESGFVIRDELALYDATKRFNVRFAEGTDQCMCHCNEIISGRALPPDCPAFGMACTLQNPVGPCMISNEGICAAYFKYKLESSRFSRLDVEGHHHHHH,soluble
13,MSLDVPLAQTVVWETHVGDFSNDPAGGFPESHRGKYLAFTDDGTSLEGHPDFPTGLAYLKKLGVTAVQLMPIYDFGSVDETTCDRYNWGYDPINYNVPEGSYSTNPFDGTTRIREVKQMVQALHSAGIKVIMDVVYNHMFSTDNWFERTVPKYFLRRKPNGALANGSGCGCDMATERKMFRRFIVESVTFWAREYHMDGFRFDLMGLIDVDTMNAVRAALNEIPGRGRDILMYGEPWSAGASAPLPADTLLAGKQGLAQLDDRIGHFCDTTRDTIKGHVFYSDRPGYVNGGMHANAVAVREAVDAWRHSDRPEGVAGQVIQYVSAHDDLTLWDKLCASLAASSLGSAVAEGDEENTVDVPKTLHDADFSEQGLDAVGPEMAQALHDVLGANRLSAGIVLTSAGIPFMLSGEEFARTKYGNSDSYDSTKELNWLDWNRAWHMRDLIGFYAKLIALRKSDARWFDGNRKIVDTEGDELVFRVGDYLVAVNPSDRTGVVDVAAAAVEGDSGEMHRYWCCLGVSGRGGGVSTGGGDDDYLIMPAHTFAIWRLQEGHHHHHH,not soluble
14,MSLDVTDAQAIADHWGRGDVFGLIVAALNQMAKPLDGLTVEELAPVDHFHSRGFPATVEFADRLPINAGEQILDIGCGLGGPARYMAKRFQCRVSGIDITGPFVEAANRLTALLHMEQQVEIAQGNGQRLPYPDSCFDGAYTQDVTMNVAERAGFFAEAYRVLKPGAFFALSEHGLGPQGKPHYPVPWSDDGTGAYLTAPAETRAILERTGFEAITVEDTGAKCVAGYGKVIERAEKGALPPLGLHLFMGESMVEKMRNAARNIEEGRTHPIQLICRKEGHHHHHH,soluble
15,MSLDYSTSLRFQSQLERSMTEALNALGYYHPSIDFTVSEDNQRLRAAVTLGEVTRLSEVDIVIRGEAEGDRDFQRLIRRSGLRVDAPLNHSLYDNLKSGIRNLALQKGYFNGDFQASRLEVIPELNQARVILHFDSGIRYLFGATTVEGSQIDENRVMSLRPFKQGEPYLVSQVGEFNQNLSNTDWFSSVFVEPDLSQLDEGRELPIKVTLAPQARNQLETGLGYSTDVGVRGSLKWKKPWVNSQGHSFDSSFSLSIPEQTITAGYKIPLEDALNEYYRIQYGMKHLDKRDTESLESNLSLERHWQLDGGWHRTVFIRYLLENYRQGLQDDNSQFLLPGMTYTRTRTRSNSGLLTWGDKQTITLEYGDPALLSETRVLRLQTGSSWLRTYARNHRALVRVDGGANLVDEFDQLSPSLRFFAGGDNNLRGYGYKSISPQDASGALTGAKYIATSSIEYQYRLTGNWWAAMFMDVGDAFNDNPEWKKGVGTGIRWISPVGPIRLDFAWGLDAAPGDEFKIHFTLGPELEGHHHHHH,not soluble
16,MSLDYTYADDSLTLHTDMYQINMMQTYWELGRADLHAVFECYFREMPFNHGYAIFAGLERLVNYLENLTFTESDIAYLREVEEYPEDFLTYLANFEFKCTVRSALEGDLVFNNEPLIQIEGPLAQCQLVETALLNMVNFQTLIATKAARIKSVIGDDPLLEFGTRRAQELDAAIWGTRAAYIGGADATSNVRAGKIFGIPVSGTHAHSLVQSYGNDYEAFMAYAKTHRDCVFLVDTYDTLKAGVPSAIRVAREMGDKINFLGVRIDSGDMAYISKRVREQLDEAGFTEAKIYASNDLDENTILNLKMQKSKIDVWGVGTKLITAYDQPALGAVFKLVSIEGEDGQMKDTIKLSSNAEKVTTPGKKQVWRITRKSDKKSEGDYVTLWNEDPRQEEEIYMFHPVHTFINKYVRDFEARPVLQDIFVEGKRVYELPTLDEIKQYAKENLDSLWEEYKRDLNPQKYPVDLSTDCWNHKMNLLEKVRKDVKHLTETVNKEAEGHHHHHH,soluble
17,MSLEAFIRSDQYNFIKSQAYILANGHATANDRGVIQALKSLAIEKIIHVFENLTDEQKELIDTVLTVQNREDAESFLMKIKPYVIPFQEVTAQTLKKLFPKAKKLKLPDMEEMDMKEISYLSWIDKGSSRKFIIAKNDKNKFVGLQGTFQSLNKKSICSLCHGHEEVGMFLVEIKGDIPGTFVKKGNYICKDGVACNQNMKSLDKLQDFIERLKKEGHHHHHH,soluble
